{"source": "patent US20190134153A1", "about": "“IMMUNOMODULATORY EFFECT OF INHALED KINASE INHIBITOR PEPTIDES IN LUNG” (MOERAE MATRIX, INC., priority 2017, published 2019)", "assay_in_all_cases": "Kinase Profiling Assay", "settings_in_all_cases": "100 μM", "key": {"MAPKAP-K3(h)": {"target": "MAPKAP-K3(h) (Homo sapiens, UniProt Q16644)", "sequence (Q16644 whole entry)": "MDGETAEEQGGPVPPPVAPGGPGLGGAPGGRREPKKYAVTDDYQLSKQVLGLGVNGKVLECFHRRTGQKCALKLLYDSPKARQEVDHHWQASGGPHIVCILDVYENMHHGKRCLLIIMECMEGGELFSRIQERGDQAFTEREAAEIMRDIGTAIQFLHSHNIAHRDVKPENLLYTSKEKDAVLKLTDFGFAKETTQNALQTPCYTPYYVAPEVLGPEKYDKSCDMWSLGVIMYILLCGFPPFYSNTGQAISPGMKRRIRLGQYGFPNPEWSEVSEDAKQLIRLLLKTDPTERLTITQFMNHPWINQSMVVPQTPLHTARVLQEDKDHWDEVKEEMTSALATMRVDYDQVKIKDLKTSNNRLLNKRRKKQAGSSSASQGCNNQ", "type": "biochemical"}, "CDK2/cyclinE(h)": {"target": "CDK2/cyclinE(h) (Homo sapiens, UniProt P24941)", "type": "biochemical"}, "MLCK(h)": {"tested_on": "MLCK(h)", "type": "biochemical, human"}, "PTK5(h)": {"target": "PTK5(h) (Homo sapiens, UniProt P42685)", "sequence (P42685 whole entry)": "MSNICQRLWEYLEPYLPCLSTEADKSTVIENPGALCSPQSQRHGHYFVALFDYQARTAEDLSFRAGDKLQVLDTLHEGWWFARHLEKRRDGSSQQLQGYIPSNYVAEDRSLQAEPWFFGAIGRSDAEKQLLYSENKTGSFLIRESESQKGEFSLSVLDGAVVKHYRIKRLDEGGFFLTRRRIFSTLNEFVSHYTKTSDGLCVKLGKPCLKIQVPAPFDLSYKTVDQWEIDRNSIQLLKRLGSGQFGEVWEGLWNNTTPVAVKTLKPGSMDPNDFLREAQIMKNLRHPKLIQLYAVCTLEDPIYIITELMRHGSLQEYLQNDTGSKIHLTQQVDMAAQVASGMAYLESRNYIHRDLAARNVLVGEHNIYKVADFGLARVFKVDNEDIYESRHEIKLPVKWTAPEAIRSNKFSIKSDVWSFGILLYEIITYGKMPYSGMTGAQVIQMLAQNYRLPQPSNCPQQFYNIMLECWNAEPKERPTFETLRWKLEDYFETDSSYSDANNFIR", "type": "biochemical"}, "SIK(h)": {"target": "SIK(h) (Homo sapiens, UniProt P57059)", "sequence (P57059 whole entry)": "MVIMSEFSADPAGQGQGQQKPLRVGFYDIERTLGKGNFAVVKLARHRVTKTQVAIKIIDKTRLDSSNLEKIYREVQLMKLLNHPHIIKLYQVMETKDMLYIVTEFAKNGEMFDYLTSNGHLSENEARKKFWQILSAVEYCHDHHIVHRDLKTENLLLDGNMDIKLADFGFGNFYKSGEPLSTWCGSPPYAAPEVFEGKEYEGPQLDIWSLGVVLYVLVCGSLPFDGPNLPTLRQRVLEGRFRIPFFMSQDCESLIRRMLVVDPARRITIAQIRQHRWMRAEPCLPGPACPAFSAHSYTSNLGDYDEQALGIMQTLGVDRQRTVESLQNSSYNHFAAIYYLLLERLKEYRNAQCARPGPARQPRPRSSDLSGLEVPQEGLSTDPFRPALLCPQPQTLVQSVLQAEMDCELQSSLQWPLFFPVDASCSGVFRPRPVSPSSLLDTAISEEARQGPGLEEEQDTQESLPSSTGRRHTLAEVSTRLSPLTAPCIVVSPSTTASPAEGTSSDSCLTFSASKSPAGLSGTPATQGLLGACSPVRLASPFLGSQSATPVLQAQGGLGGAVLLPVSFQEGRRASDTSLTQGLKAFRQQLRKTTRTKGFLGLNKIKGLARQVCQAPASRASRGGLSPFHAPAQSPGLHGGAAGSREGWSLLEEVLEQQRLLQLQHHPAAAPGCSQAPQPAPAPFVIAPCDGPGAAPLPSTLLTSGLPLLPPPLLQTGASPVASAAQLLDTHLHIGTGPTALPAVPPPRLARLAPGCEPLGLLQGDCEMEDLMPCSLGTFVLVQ", "type": "biochemical"}, "IKKα(h)": {"target": "T1, IKKα(h) (Homo sapiens, UniProt O15111)", "T1 sequence (O15111 1-745)": "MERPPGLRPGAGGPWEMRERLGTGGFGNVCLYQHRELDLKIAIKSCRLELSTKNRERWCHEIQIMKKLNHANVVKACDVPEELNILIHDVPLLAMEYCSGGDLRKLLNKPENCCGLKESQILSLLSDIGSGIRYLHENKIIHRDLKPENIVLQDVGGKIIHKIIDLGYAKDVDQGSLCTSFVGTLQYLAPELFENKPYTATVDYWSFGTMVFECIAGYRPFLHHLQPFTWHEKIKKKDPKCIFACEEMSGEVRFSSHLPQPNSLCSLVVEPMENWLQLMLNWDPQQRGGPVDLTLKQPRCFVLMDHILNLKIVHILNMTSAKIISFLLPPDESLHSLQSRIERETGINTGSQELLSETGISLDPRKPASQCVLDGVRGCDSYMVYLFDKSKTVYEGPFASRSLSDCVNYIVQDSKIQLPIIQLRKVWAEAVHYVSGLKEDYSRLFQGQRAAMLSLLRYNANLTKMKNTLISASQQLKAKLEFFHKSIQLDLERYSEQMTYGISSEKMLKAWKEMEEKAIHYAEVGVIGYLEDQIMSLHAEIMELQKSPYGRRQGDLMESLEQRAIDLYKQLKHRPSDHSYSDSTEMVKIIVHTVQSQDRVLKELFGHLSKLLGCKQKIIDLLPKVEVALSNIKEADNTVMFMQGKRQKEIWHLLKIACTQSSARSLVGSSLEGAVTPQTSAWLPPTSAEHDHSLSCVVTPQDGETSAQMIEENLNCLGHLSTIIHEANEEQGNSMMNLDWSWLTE", "type": "biochemical"}, "Abl (M351T)(h)": {"target": "Abl (M351T)(h) (Homo sapiens, UniProt P00519, M351T)", "type": "biochemical"}, "ARK5(h)": {"target": "T2, ARK5(h) (Homo sapiens, UniProt O60285)", "T2 sequence (O60285 1-661)": "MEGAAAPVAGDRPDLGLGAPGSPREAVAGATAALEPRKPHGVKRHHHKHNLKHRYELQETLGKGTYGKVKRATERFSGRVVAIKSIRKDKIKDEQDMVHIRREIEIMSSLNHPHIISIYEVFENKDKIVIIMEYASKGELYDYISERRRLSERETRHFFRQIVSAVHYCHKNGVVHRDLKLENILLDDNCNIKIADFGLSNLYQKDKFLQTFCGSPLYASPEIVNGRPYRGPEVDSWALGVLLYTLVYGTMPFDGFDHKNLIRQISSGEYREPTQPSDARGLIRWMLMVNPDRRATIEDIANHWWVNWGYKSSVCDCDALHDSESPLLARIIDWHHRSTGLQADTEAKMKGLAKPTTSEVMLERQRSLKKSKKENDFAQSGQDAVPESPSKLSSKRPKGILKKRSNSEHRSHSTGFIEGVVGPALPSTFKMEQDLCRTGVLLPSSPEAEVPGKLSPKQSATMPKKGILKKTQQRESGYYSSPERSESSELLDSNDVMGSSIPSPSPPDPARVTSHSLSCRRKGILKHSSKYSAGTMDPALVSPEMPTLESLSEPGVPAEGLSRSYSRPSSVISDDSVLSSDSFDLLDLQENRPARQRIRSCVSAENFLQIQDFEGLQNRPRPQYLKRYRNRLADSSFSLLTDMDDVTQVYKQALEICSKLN", "type": "biochemical"}, "CDK7/cyclinH/MAT1(h)": {"target": "CDK7/cyclinH/MAT1(h) (Homo sapiens, UniProt P50613)", "sequence (P50613 whole entry)": "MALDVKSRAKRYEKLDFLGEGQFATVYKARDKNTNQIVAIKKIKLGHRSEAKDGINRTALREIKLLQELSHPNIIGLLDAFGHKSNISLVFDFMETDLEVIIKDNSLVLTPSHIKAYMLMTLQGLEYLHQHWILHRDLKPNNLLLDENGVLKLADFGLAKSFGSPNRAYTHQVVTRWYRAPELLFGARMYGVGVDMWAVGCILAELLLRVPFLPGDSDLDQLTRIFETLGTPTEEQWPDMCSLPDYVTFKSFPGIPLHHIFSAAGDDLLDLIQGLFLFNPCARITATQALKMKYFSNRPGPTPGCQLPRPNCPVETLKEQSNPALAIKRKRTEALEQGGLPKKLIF", "sequence (P51946 whole entry partner)": "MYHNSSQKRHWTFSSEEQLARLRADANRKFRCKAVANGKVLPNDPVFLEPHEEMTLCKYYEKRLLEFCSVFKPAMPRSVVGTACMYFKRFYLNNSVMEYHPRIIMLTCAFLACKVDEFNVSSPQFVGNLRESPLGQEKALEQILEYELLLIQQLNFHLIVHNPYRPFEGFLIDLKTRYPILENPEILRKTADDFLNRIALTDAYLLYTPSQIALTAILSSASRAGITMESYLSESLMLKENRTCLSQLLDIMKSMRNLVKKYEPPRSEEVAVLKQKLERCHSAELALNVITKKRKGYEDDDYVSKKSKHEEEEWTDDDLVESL", "sequence (P51948 whole entry partner)": "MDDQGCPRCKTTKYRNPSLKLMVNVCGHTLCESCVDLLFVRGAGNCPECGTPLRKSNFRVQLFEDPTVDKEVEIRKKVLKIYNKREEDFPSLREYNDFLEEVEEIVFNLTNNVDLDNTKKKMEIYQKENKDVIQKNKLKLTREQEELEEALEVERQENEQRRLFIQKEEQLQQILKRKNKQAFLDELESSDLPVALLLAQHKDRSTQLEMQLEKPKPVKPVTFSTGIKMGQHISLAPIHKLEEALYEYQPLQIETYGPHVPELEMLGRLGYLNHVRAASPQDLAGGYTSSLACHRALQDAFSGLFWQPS", "type": "biochemical"}, "PDGFRα(D842V)(h)": {"target": "PDGFRα(D842V)(h) (Homo sapiens, UniProt P16234, D842V)", "sequence (P16234 24-1089 D842V)": "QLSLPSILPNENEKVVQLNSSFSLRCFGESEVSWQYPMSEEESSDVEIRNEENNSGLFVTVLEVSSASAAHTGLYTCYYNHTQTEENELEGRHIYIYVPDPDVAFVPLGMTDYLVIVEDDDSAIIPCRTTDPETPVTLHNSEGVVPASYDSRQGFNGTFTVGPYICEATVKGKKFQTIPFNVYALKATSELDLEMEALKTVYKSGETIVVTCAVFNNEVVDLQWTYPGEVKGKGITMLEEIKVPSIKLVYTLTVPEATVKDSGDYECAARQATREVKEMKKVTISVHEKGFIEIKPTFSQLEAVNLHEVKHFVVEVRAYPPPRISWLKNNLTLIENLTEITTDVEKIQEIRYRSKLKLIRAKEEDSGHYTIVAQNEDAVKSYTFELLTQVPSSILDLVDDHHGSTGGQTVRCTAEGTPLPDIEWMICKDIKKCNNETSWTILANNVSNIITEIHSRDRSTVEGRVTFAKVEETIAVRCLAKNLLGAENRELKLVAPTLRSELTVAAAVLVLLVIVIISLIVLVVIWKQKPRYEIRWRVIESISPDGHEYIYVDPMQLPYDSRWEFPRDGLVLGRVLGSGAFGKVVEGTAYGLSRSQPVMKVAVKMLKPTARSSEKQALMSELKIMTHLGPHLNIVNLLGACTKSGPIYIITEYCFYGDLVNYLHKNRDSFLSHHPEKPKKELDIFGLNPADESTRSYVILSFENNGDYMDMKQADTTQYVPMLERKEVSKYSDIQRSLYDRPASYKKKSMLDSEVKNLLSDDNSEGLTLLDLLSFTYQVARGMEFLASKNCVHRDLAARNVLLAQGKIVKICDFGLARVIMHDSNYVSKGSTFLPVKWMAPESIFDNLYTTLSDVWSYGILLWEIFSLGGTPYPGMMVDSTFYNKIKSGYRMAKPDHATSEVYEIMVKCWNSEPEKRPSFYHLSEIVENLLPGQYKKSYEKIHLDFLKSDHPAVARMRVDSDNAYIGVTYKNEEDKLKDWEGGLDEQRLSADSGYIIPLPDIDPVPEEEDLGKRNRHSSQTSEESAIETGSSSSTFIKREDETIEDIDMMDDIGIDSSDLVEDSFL", "type": "biochemical"}, "MAPK1(h)": {"target": "MAPK1(h) (Homo sapiens, UniProt P27361)", "sequence (P27361 whole entry)": "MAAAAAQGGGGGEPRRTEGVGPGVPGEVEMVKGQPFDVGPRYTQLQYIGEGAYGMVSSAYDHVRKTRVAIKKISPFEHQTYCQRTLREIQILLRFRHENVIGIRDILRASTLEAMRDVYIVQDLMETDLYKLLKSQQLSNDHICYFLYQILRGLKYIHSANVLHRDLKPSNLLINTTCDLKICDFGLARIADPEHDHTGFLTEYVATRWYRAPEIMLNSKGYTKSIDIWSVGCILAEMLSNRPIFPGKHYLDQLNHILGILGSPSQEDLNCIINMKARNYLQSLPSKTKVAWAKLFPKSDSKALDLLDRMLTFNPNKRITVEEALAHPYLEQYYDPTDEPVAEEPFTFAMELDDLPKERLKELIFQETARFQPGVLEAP", "type": "biochemical"}}}
{"sequence": "FAKLAARLYRKALARQLGVAA [MMI-0300]", "values": [{"measurement": "% activity", "setting": "MAPKAP-K3(h)", "value": 3, "unit": "%"}, {"measurement": "% activity", "setting": "CDK2/cyclinE(h)", "value": 94, "unit": "%"}, {"measurement": "% activity", "setting": "MLCK(h)", "value": 2, "unit": "%"}, {"measurement": "% activity", "setting": "PTK5(h)", "value": 132, "unit": "%"}, {"measurement": "% activity", "setting": "SIK(h)", "value": 66, "unit": "%"}, {"measurement": "% activity", "setting": "IKKα(h)", "value": 93, "unit": "%"}, {"measurement": "% activity", "setting": "Abl (M351T)(h)", "value": 90, "unit": "%"}, {"measurement": "% activity", "setting": "ARK5(h)", "value": 78, "unit": "%"}, {"measurement": "% activity", "setting": "CDK7/cyclinH/MAT1(h)", "value": 65, "unit": "%"}]}
{"sequence": "KAFAKLAARLYRKALARQLGVAA [MMI-0400]", "values": [{"measurement": "% activity", "setting": "MAPKAP-K3(h)", "value": 7, "unit": "%"}, {"measurement": "% activity", "setting": "CDK2/cyclinE(h)", "value": 83, "unit": "%"}, {"measurement": "% activity", "setting": "MLCK(h)", "value": 1, "unit": "%"}, {"measurement": "% activity", "setting": "PTK5(h)", "value": 129, "unit": "%"}, {"measurement": "% activity", "setting": "SIK(h)", "value": 68, "unit": "%"}, {"measurement": "% activity", "setting": "IKKα(h)", "value": 87, "unit": "%"}, {"measurement": "% activity", "setting": "ARK5(h)", "value": 69, "unit": "%"}, {"measurement": "% activity", "setting": "CDK7/cyclinH/MAT1(h)", "value": 47, "unit": "%"}, {"measurement": "% activity", "setting": "PDGFRα(D842V)(h)", "value": 118, "unit": "%"}, {"measurement": "% activity", "setting": "MAPK1(h)", "value": 100, "unit": "%"}]}
{"sequence": "YARAAARQARAKALNRQLGVA [MMI-0200]", "values": [{"measurement": "% activity", "setting": "MAPKAP-K3(h)", "value": 39, "unit": "%"}, {"measurement": "% activity", "setting": "MLCK(h)", "value": 103, "unit": "%"}, {"measurement": "% activity", "setting": "PTK5(h)", "value": 108, "unit": "%"}, {"measurement": "% activity", "setting": "ARK5(h)", "value": 93, "unit": "%"}, {"measurement": "% activity", "setting": "CDK7/cyclinH/MAT1(h)", "value": 67, "unit": "%"}, {"measurement": "% activity", "setting": "MAPK1(h)", "value": 97, "unit": "%"}]}
{"sequence": "HRRIKAWLKKIKALARQLGVAA [MMI-0500]", "values": [{"measurement": "% activity", "setting": "MAPKAP-K3(h)", "value": 9, "unit": "%"}, {"measurement": "% activity", "setting": "CDK2/cyclinE(h)", "value": 19, "unit": "%"}, {"measurement": "% activity", "setting": "MLCK(h)", "value": 0, "unit": "%"}, {"measurement": "% activity", "setting": "PTK5(h)", "value": 96, "unit": "%"}, {"measurement": "% activity", "setting": "SIK(h)", "value": 40, "unit": "%"}, {"measurement": "% activity", "setting": "IKKα(h)", "value": 50, "unit": "%"}, {"measurement": "% activity", "setting": "Abl (M351T)(h)", "value": 61, "unit": "%"}, {"measurement": "% activity", "setting": "ARK5(h)", "value": 20, "unit": "%"}, {"measurement": "% activity", "setting": "CDK7/cyclinH/MAT1(h)", "value": 15, "unit": "%"}, {"measurement": "% activity", "setting": "PDGFRα(D842V)(h)", "value": 170, "unit": "%"}]}
